Assay results reported in article PMC2118261.

Tests used:
[1] = target: human CD1d loaded with α-galactosylceramide, biotinylated (human) (UniProt P15813); assay: SPR
[2] = target: mouse CD1d loaded with α-galactosylceramide, biotinylated (for SPR) (mouse) (UniProt P11609); assay: SPR
Chain of UniProt P11609 (P11609 22-336): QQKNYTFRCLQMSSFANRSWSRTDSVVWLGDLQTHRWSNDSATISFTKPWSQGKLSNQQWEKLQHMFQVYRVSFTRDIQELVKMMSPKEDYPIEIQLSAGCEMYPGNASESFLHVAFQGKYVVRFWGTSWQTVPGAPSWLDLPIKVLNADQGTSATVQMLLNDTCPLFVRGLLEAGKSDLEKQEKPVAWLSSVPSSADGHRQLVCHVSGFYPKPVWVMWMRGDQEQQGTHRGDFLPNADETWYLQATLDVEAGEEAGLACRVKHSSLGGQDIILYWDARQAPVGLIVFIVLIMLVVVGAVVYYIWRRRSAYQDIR

Chain of UniProt P15813 (P15813 20-335): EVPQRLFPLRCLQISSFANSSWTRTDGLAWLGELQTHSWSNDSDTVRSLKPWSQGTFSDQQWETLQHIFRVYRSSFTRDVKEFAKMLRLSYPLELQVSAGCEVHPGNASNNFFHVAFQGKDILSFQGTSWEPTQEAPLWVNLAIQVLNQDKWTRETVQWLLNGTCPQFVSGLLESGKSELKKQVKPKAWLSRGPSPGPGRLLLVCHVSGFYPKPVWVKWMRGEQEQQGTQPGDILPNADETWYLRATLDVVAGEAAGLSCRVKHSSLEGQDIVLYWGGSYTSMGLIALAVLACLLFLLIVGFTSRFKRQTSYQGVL

Kd [1] | Kd [2] | fold lower affinity than NKT15 [1] | fold lower affinity than NKT15 [2] | Substance
10 µM | 20 µM |  |  | NKT15 TCR (human semi-invariant NKT cell αβ T cell receptor, soluble extracellular domains)
 |  | 5 to 10 fold | 5 to 10 fold | NKT15α-chain/NKT15 β-chain engrafted with the LC13 CDR3β-loop (TCR)
